Here are results for one molecule from patent US20250282861A1 (SYDDANSK UNIVERSITET, published 2025).

The assay addresses T1, recombinant human MFAP4 (microfibrillar-associated protein 4) (human, UniProt P55083 22-255).
T1 construct: It was coated on plates or filters at 10 µg/ml and also served as the ELISA standard; also called rhMFAP4; hrMFAP4
T1 sequence (looked up): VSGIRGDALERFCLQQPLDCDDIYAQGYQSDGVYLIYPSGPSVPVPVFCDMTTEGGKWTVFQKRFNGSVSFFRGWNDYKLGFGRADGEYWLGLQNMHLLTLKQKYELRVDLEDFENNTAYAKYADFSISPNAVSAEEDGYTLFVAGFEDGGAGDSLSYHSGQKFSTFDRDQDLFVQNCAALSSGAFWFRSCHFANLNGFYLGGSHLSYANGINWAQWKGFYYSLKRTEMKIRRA
Description: sandwich ELISA, capture antibody coated at 1 µg/ml; rhMFAP4 as standard.
Description: The next day, plates were washed and blocked with PBS/tween for 1h at room temperature. […] Then, plates were successively incubated with horseradish peroxidase (HRP)-conjugated streptavidin (1:2000, diluted in PBS/tween, Invitrogen) for half an hour at room temperature, O-phenylenediamine dihydrochloride (OPD) (0.4 mg/ml, H1009, Sigma) dissolved in HRP with 0.03% H₂O₂, for 15 min at room temperature in the dark. Finally, 100 μl/well of 1M H₂SO₄ was added to stop the color development. Optical density was read at 492 nm wavelength with 620 nm as reference using ELISA microplate reader.

B1: HG Hyb 7-5 murine monoclonal antibody raised against human recombinant MFAP4 (antibody, mouse IgG1, V domains shown)
VH: EVQLQQSGPELVKPGASVKLSCKTSGYTFTSYDMNWVKQRPGQGLEWIGWIFPRDGSTKFNEKFKGKATLTVDTSSTTAYMELHSLTSEDSAVYFCARAEIFFDYGFDYWGQGTTLTVSS
VL: DIVMTQSTALMAASPGEKVTITCSVSSSISSSNLHWYQQKSETSPKSWIYGTSNLASGVPGRFSGSGSGTSYSLTISSVEAEDAATYYCQQWSSYPLTFGGGTKLEIK
notes: Used as the capture antibody in the ELISA for human MFAP4
Consider B1, for which the binding result is “binds”.
